Measured values as given in patent publication US20190382503A1 (published 2019).

Legend:
human CD137 on cells = target: T1, human CD137 on cells (human, UniProt Q07011 24-255); experiment: flow cytometry, MFI of the CD137 positive CD8 T cells
T1 construct: Human CD137 on CHO-K1 transfectants, Jurkat/CD137 reporter cells or CD3-stimulated primary human CD8 T cells; cells named under assay; also called 4-1BB; TNFRSF9
Experimental: (§1) FACS staining and analysis of CD8 T cells: Following 48 h of incubation with or without CD3, human and cynomolgus PBMC were harvested, pooled, recounted and diluted in FACS buffer (PBS+0.5% BSA, 0.05% NaN₃) to a concentration of 5×10⁶ cells/mL. 50 μL (0.25×10⁶ cells) of cell solution was added to a 96-well FACS staining plate (Falcon #351190). Following 10 min of Fc-blocking in RT using Beriglobin (hIgG, 200 μg/mL), cells were washed in FACS buffer and then incubated for 1 h in 4° C. with 100 μL of the biotinylated ALG.APV-210 or negative control. […] Cells were analysed for ALG.APV-210 binding using flow cytometry by gating on viable, single cells expressing CD3 and CD8. MFI values (FMO subtracted) from 2 independent experiments as well as normalized pooled data from 2 experiments and EC₅₀-values were determined and plotted using GraphPad Prism 7, non-linear regression log (agonist) vs. normalized response-variable slope, n=6 donors/group.
(§2) ALG.APV-210 binding was also assessed by looking at the percentage of CD8 T cells bound by ALG.APV-210. […] The binding EC₅₀ values were also calculated on the MFI of the CD137 positive cells, and the results was an EC₅₀ of 0.17 nM for binding to human CD137 and 0.20 nM for cynomolgus monkey CD137.

[1] = target: T2, cynomolgus CD137 on cells (cynomolgus macaque, UniProt A9YYE7 24-254); experiment: as above
T2 construct: whole, on cells; also called CHO-K1/cynomolgus CD137; cynomolgus monkey CD137
Experimental: as §1, §2

T1 sequence (Q07011 24-255 limits assumed): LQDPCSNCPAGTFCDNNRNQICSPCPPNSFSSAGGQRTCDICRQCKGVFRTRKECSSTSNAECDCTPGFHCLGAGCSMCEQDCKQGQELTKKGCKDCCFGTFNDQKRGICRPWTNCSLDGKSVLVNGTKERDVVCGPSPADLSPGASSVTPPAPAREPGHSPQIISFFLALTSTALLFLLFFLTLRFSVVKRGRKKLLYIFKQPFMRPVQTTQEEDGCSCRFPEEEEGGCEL
T2 sequence (A9YYE7 entry or part of it): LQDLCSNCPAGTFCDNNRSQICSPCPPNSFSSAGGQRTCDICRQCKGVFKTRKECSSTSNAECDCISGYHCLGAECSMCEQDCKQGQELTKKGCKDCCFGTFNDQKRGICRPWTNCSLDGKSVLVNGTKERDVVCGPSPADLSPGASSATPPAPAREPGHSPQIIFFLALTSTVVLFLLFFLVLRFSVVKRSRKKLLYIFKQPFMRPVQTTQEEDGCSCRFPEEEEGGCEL

B1: biotinylated ALG.APV-210 (bispecific antibody)
chain: EVQLLESGGGLVQPGGSLRLSCAASGFTFSHGSMYWVRQAPGKGLEWVSSISSGSGSTYYADSVKGRFTISHDNSKNTLYLQMNSLRAEDTAVYYCARSSYYGSYYSIDYWGQGTLVTVSSGGGGSGGGGSGGGGSGGGGSDIQMTQSPSSLSASVGDRVTITCRASQSISSYLNWYQQKPGKAPKLLIYAASSLQSGVPSRFSGSGSGTDFTLTISSLQPEDFATYYCQQYYDNLPTFGQGTKLEIKEPKSSDKTHTCPPCPAPEAAGAPSVFLFPPKPKDTLMISRTPEVTCVVVDVSHEDPEVKFNWYVDGVEVHNAKTKPREEQYNSTYRVVSVLTVLHQDWLNGKEYKCAVSNKALPAPIEKTISKAKGQPREPQVYTLPPSRDELTKNQVSLTCLVKGFYPSDIAVEWESNGQPENNYKTTPPVLDSDGSFFLYSKLTVDKSRWQQGNVFSCSVMHEALHNHYTQKSLSLSPGSGGGGSGGGGSGGGGSPSEVQLLESGGGLVQPGGSLRLSCAASGFTFSSYAMSWVRQAPGKCLEWVSAISGSGGSTYYADSVKGRFTISRDNSKNTLYLQMNSLRAEDTAVYYCARYYGGYYSAWMDYWGQGTLVTVSSGGGGSGGGGSGGGGSGGGGSDIQMTQSPSSLSASVGDRVTITCRASQSISSFLNWYQQKPGKAPKLLIYAASSLQSGVPSRFSGSGSGTDFTLTISSLQPEDSATYYCQQTYGYLHTFGCGTKLEIKR
modifications: biotinylated (sites not given)
EC50 (human CD137 on cells): 0.17 nM
EC50 [1]: 0.2 nM
